The source of these data is patent US20240384250A1, “FIBROBLAST GROWTH FACTOR 23 MODULATING COMPOUNDS” (THE UAB RESEARCH FOUNDATION, priority 2021, published 2024).

One experiment has as its target T1, FGF19 (Homo sapiens, UniProt O95750).
T1 construct: purchased R&D Systems 969FG025/CF
The experiment is described as follows: Co-immunoprecipitation of FGF with FLAG-tagged sKL on anti-FLAG beads. The experiment is classed as binding. On the procedure:
(§1) To study the interaction between FLAG-tagged sKL and different FGF isoforms, co-immunoprecipitation studies were conducted. FLAG beads (A2220, Sigma-Aldrich) were used at 50 ul of 50% stock slurry per sample. Beads were washed 5× with activity buffer (50 mM Tris [pH 7.4], 200 mM NaCl, 0.01% Tween 20, Sigma-Aldrich). Bead spin-down assays were all performed for 2 minutes at 5000 g. Fifty microliters of a 50% slurry of beads per sample was resuspended in 1 ml of activity buffer in a 1.5-ml snap cap tube. One microgram of FLAG-tagged sKL or Carboxy-terminal bacterial alkaline phosphatase (BAPC; P7457, Sigma-Aldrich) was incubated with the beads for 1 hour on a bead rotator. Beads were then pelleted at 5000 g for 2 minutes and washed 5× with activity buffer. Beads were resuspended in 1 ml of activity buffer and samples with 500 ng of FGF. Beads were incubated for 1 hour on a tube rotator, and beads were pelleted and washed as before. One hundred microliters of I× Laemmli sample buffer (1610737, Bio-Rad) with 1.42 M 2-mercaptoethanol was added, and samples were boiled for 5 minutes and analyzed using sodium dodecylsulfate-polyacrylamide gel electrophoresis (SDS-PAGE) and Western blotting, as described below herein.
(§2) The sample (20 μl) was loaded onto Mini-PROTEAN TGX Precast Gel 4-20% for experiments with <9 samples (4568094, Bio-Rad) or Criterion TGX Precast Gel 4-20% (5678094, Bio-Rad) for experiments with >9 samples. Gels were run in 1× Tris/Glycine/SDS buffer (1610732, Bio-Rad) at 150 V and stopped when the sample dye reached the end of the gel. Gels were removed and electrotransferred via a semi-dry cassette (1703940, Bio-Rad) in I× Tris/Glycine buffer (1610734, Bio-Rad) with 20% methanol. Gels were transferred onto polyvinylidene diflouride membranes (IPVH00010, Millipore) at 20 V for 1 hour. Membranes were then blocked in 5% dried milk with 0.5% Tween 20 diluted in Tris-buffered saline (TBST; pH 7.5) for 1 hour and probed with antibodies against specific antigens at 1:1000 in TBST with 5% dried milk. Blots were washed 3× for 5 minutes in TBST and probed with HRP-coupled secondary antibodies against specific species at 1:10,000 in TBST with 5% dried milk. Membranes were imaged on the SRX-101A X-ray film developer (Konica Minolta).

In another experiment the target is T2, FGF21 (Homo sapiens, UniProt Q9NSA1).
T2 construct: purchased R&D Systems 2539FG025/CF
T2 sequence (Q9NSA1 29-209): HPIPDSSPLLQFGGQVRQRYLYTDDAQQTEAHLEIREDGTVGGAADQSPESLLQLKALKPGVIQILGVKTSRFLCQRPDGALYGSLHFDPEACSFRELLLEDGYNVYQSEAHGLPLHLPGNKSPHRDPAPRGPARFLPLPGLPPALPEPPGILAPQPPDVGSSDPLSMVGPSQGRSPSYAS
Described as above. Type of experiment: binding. The method, then:
as §1, §2

In the next experiment the target is T3, FGF23 (Homo sapiens, UniProt Q9GZV9).
T3 construct: purchased R&D Systems 2604FG025/CF (human) or 2629FG025/CF (mouse)
T3 sequence (Q9GZV9 25-251): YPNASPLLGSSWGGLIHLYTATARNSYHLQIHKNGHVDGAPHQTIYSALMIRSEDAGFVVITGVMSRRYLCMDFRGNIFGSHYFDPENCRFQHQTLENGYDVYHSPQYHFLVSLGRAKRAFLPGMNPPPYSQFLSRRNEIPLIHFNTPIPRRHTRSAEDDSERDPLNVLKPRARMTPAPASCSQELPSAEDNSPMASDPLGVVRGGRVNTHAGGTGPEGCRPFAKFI
Described as above. Type of experiment: binding. The following applies: absence of FGFR. The method, then: as §1, §2

A further experiment addresses T4, FGF2 binding to FGFR1c (Homo sapiens, UniProt P11362).
T4 construct: a chimeric protein consisting of the FGFR1 ectodomain and the Fc region of a human IgG; purchased R&D Systems 233-FB/CF; 658FR050
T4 sequence (P11362 22-376 limits assumed): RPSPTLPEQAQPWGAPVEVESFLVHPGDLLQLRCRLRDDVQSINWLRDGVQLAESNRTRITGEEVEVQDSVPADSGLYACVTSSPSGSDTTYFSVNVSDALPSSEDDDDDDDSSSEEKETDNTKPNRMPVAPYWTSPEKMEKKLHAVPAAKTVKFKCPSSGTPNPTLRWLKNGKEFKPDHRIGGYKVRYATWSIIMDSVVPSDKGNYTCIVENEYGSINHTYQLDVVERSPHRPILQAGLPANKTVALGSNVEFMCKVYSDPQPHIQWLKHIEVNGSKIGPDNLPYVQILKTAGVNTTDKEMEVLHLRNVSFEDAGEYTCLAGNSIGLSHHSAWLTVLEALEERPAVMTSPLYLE
Nature of the experiment: Plate-based binding of paracrine FGF to Fc-FGFR1c with heparin and/or sKL. To be noted: Fc-FGFR1c preincubated with FLAG-sKL, absence and presence of heparin. On the procedure:
Proteins were coated on 96-well plates (MaxiSorp; 439454, Thermo Fisher Scientific), and proteins were added to wells in 100 μl of enzyme-linked immunosorbent assay (ELISA) coating buffer (E107, Bethyl Laboratories) with a lid placed overtop and incubated at 4° C. overnight. Plates were washed 5× with 350 μl of assay buffer (50 mM Tris [pH 7.4], 200 mM NaCl, 0.01% Tween 20) on a 50 TS microplate washer (BioTek). Plates were blocked for 1 hour in 200 μl of assay buffer with 0.5% BSA. Plates were washed as before, and proteins were incubated on plates in 100 μl of assay buffer with 0.5% BSA. Proteins or heparin was incubated in orders described in the respective figure legends. Assays using FLAG-tag-based detection were incubated with anti-FLAG coupled to HRP at 1:20,000, and assays using Fc detection were incubated with anti-human Fc coupled to HRP at 1:10,000. Plates were washed as above, and 100 μl of 3,3′,5,5′-tetramethylbenzidine (TMB) substrate (E102, Bethyl Laboratories) was added for 15 to 20 minutes until positive wells developed a dark blue color. Reactions were stopped with ELISA stop solution (E115, Bethyl Laboratories) and analyzed using the Synergy HI plate reader (BioTek) at 450 nm wavelength. […] As a control to remove background absorbance values, wells were coated with an equal amount of BSA to match the amount of protein coated in experimental wells and treated the same as experimental wells. To study the effects of sKL on the binding between paracrine FGFs and FGFRs, plates were run as above except coated with paracrine FGFs. Fc-FGFR1 was preincubated with sKL or vehicle for 60 minutes, and then the combination was added to wells and the assay was run as before.

“Also recorded” adds a separate entry of the source. Where two headings read alike, the source gives them in different places.

T1 sequence (O95750 25-216): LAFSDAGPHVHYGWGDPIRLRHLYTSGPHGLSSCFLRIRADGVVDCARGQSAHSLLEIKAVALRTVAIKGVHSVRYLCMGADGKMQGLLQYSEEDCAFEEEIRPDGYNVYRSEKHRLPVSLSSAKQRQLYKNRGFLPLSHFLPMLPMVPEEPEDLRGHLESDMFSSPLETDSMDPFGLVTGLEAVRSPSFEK

B1: sKL: recombinant soluble α-klotho ectodomain, mouse aa 35-982 and human aa 34-981, FLAG- or Strep/His-tagged, purified from HEK293 cells (protein)
chain: EPGDGAQTWARFSRPPAPEAAGLFQGTFPDGFLWAVGSAAYQTEGGWQQHGKGASIWDTFTHHPLAPPGDSRNASLPLGAPSPLQPATGDVASDSYNNVFRDTEALRELGVTHYRFSISWARVLPNGSAGVPNREGLRYYRRLLERLRELGVQPVVTLYHWDLPQRLQDAYGGWANRALADHFRDYAELCFRHFGGQVKYWITIDNPYVVAWHGYATGRLAPGIRGSPRLGYLVAHNLLLAHAKVWHLYNTSFRPTQGGQVSIALSSHWINPRRMTDHSIKECQKSLDFVLGWFAKPVFIDGDYPESMKNNLSSILPDFTESEKKFIKGTADFFALCFGPTLSFQLLDPHMKFRQLESPNLRQLLSWIDLEFNHPQIFIVENGWFVSGTTKRDDAKYMYYLKKFIMETLKAIKLDGVDVIGYTAWSLMDGFEWHRGYSIRRGLFYVDFLSQDKMLLPKSSALFYQKLIEKNGFPPLPENQPLEGTFPCDFAWGVVDNYIQVDTTLSQFTDLNVYLWDVHHSKRLIKVDGVVTKKRKSYCVDFAAIQPQIALLQEMHVTHFRFSLDWALILPLGNQSQVNHTILQYYRCMASELVRVNITPVVALWQPMAPNQGLPRLLARQGAWENPYTALAFAEYARLCFQELGHHVKLWITMNEPYTRNMTYSAGHNLLKAHALAWHVYNEKFRHAQNGKISIALQADWIEPACPFSQKDKEVAERVLEFDIGWLAEPIFGSGDYPWVMRDWLNQRNNFLLPYFTEDEKKLIQGTFDFLALSHYTTILVDSEKEDPIKYNDYLEVQEMTDITWLNSPSQVAVVPWGLRKVLNWLKFKYGDLPMYIISNGIDDGLHAEDDQLRVYYMQNYINEALKAHILDGINLCGYFAYSFNDRTAPRFGLYRYAADQFEPKASMKHYRKIIDSNGFPGPETLERFCPEEFTVCTECSFFHTRKS
modifications: left off: small tags and cut ends
notes: recombinant soluble α-klotho ectodomain, mouse aa 35-982 and human aa 34-981, FLAG- or Strep/His-tagged, purified from HEK293 cells
Take B1: the “FGF19 co-precipitation with immobilized FLAG-sKL” value with FGF19 is listed as “did not bind”; in the experiment with FGF19 (listed as FLAG-sKL), “does not binds FGF19”. The “FGF21 co-precipitation with immobilized FLAG-sKL” value with FGF21 was “did not bind”; in the experiment with FGF21 (listed as FLAG-sKL), “does not binds FGF21”. Further, the results for the “FGF23 co-precipitation with immobilized FLAG-sKL” value in the experiment with FGF23 (listed as FLAG-sKL) and with FGF23 (listed as FLAG-tagged sKL) were “bound FGF23” and “FGF23 could be co-precipitated”, respectively. For the same molecule, the “binding of FGFR1c to FGF2 in the presence of sKL” value with FGF2 binding to FGFR1c is recorded as “reduced; also recorded: this effect did not occur in the presence of sKL”; with FGF2 binding to FGFR1c (listed as FLAG-sKL), “significantly reduced”.
